B1: scFv; the commonest letter at each place (parent)
chain 1: EVKLDETGGGLVQPGRPMKLSCVASGFTFSDYWMNWVRQSPEKGLEWVAQIRNKPYNYETYYSDSVKGRFTISRDDSKSSVYLQMNNLRVEDMGIYYCTGSYYGMDYWGQGTSVTVS
chain 2: DVVMTQTPLSLPVSLGDQASISCRSSQSLVHSNGNTYLRWYLQKPGQSPKVLIYKVSNRFSGVPDRFSGSGSGTDFTLKISRVEAEDLGVYFCSQSTHVPWTFGGGTKLEIK

Variants of B1 are the subject of the data set “fluorescein”. The experiment in a line: Kd (Tite-Seq). The settings on record: with fluorescein; format: scFv 4-4-20, heavy + light.
The variants in data set [1] derive from B1. In words: yeast surface expression (ratio to wild type); higher = more expressed. Particulars: format: scFv 4-4-20, heavy + light.

This note sets out measurements from the FLAb antibody collection (doi:10.7554/elife.23156).

Turning to chain 1 Y103A G104A, the Kd in the data set with fluorescein was no less than 10 µM. The yeast surface expression in data set [1] came out at 0.911.

As for chain 1 Y102F W108T, the Kd with fluorescein is 0.000479 µM. Besides, in data set [1], the yeast surface expression was found to be 0.854.

With chain 1 Y102M W108K, the equilibrium dissociation constant (Kd) with fluorescein was no less than 10 µM. In addition, the yeast surface expression in data set [1] turned out to be 0.392.

chain 1 Y103E D106P: the Kd with fluorescein was no less than 10 µM. Moreover, the yeast surface expression in data set [1] was 0.413.

Regarding chain 1 Y103A D106I W108P, the Kd with fluorescein was no less than 10 µM. In addition, in data set [1], the yeast surface expression amounted to 0.344.

As to chain 1 Y102H D106Q, the Kd in the data set with fluorescein is no less than 10 µM. In data set [1], the yeast surface expression came to 0.937.

For chain 1 Y102H D106I, the equilibrium dissociation constant (Kd) in the data set with fluorescein is no less than 10 µM. In addition, in data set [1], the yeast surface expression came out at 0.595.

As for chain 1 Y102H D106G, in the data set with fluorescein, the dissociation constant Kd was no less than 10 µM. The yeast surface expression in data set [1] came out at 0.856.

As for chain 1 Y102M D106A W108A, the dissociation constant Kd in the data set with fluorescein was no less than 10 µM. For the same variant, in data set [1], the yeast surface expression turned out to be 0.612.

In the case of chain 1 Y103F W108I, the Kd in the data set with fluorescein is no more than 0.000316 µM. Besides, in data set [1], the yeast surface expression amounted to 0.885.

On to chain 1 Y103F W108Q, for which, in the data set with fluorescein, the Kd was found to be 0.00672 µM. Besides, the yeast surface expression in data set [1] is 0.382.

Regarding chain 1 Y103F W108K, the equilibrium dissociation constant (Kd) with fluorescein was determined as 0.0171 µM. In addition, the yeast surface expression in data set [1] was 0.318.

Turning to chain 1 Y102G G109K, the Kd with fluorescein is no less than 10 µM. The yeast surface expression in data set [1] turned out to be 0.336.

With chain 1 Y103F M105T, the dissociation constant Kd with fluorescein was no less than 10 µM. Moreover, in data set [1], the yeast surface expression turned out to be 1.01.

Take chain 1 Y103H Y107Q: the Kd in the data set with fluorescein is no less than 10 µM. The yeast surface expression in data set [1] was 0.941.

In the case of chain 1 Y103H Y107I, the dissociation constant (Kd) with fluorescein was no less than 10 µM. Further, the yeast surface expression in data set [1] was 1.25.

On to chain 1 Y102G D106Y, for which, in the data set with fluorescein, the Kd was no less than 10 µM. Also, the yeast surface expression in data set [1] was 0.496.

Regarding chain 1 Y102V M105H G109V, the equilibrium dissociation constant (Kd) in the data set with fluorescein was no less than 10 µM. In addition, the yeast surface expression in data set [1] was found to be 0.276.

As for chain 1 Y102S Y103S, in the data set with fluorescein, the dissociation constant (Kd) came out at 0.021 µM. Also, in data set [1], the yeast surface expression is 1.1.

Turning to chain 1 Y102S Y103C, the Kd with fluorescein stood at 0.0125 µM. Moreover, in data set [1], the yeast surface expression amounted to 0.707.

On to chain 1 Y103F G109F, for which, in the data set with fluorescein, the Kd is no less than 10 µM. Besides, in data set [1], the yeast surface expression was 0.237.

Take chain 1 Y102P G104Y W108S: the Kd with fluorescein was no less than 10 µM. In data set [1], the yeast surface expression was 0.379.

For the variant chain 1 Y102M M105T W108T, the Kd with fluorescein was no less than 10 µM. Also, in data set [1], the yeast surface expression is 0.539.

Turning to chain 1 Y103D M105Y, in the data set with fluorescein, the Kd was no less than 10 µM. In addition, the yeast surface expression in data set [1] amounted to 1.03.

chain 1 Y103D M105N: the Kd in the data set with fluorescein is no less than 10 µM. Also, in data set [1], the yeast surface expression was determined as 1.19.

As for chain 1 Y102L Y107S, the Kd with fluorescein stood at 5.96 µM. Besides, in data set [1], the yeast surface expression was 1.78.

Take chain 1 Y102Q M105Y: the dissociation constant Kd with fluorescein turned out to be 0.75 µM. In data set [1], the yeast surface expression came out at 0.947.

With chain 1 Y102Q M105I, the Kd with fluorescein worked out at 8.56 µM. Moreover, the yeast surface expression in data set [1] came to 0.843.

chain 1 Y102Q M105V: in the data set with fluorescein, the Kd was no less than 10 µM. In data set [1], the yeast surface expression turned out to be 1.05.

For the variant chain 1 Y102Q M105D, in the data set with fluorescein, the equilibrium dissociation constant (Kd) was no less than 10 µM. In addition, the yeast surface expression in data set [1] was determined as 0.932.

chain 1 Y102V Y103G Y107F: in the data set with fluorescein, the Kd amounted to 6.27 µM. The yeast surface expression in data set [1] stood at 1.12.

Turning to chain 1 Y103A G104Y G109T, the dissociation constant Kd with fluorescein was no less than 10 µM. Further, the yeast surface expression in data set [1] is 0.211.

With chain 1 Y103E G109I, the dissociation constant Kd in the data set with fluorescein is no less than 10 µM. In addition, in data set [1], the yeast surface expression was 0.277.

Turning to chain 1 Y102M D106T, the Kd with fluorescein is no less than 10 µM. Moreover, the yeast surface expression in data set [1] amounted to 1.07.

Turning to chain 1 Y103H W108R, in the data set with fluorescein, the dissociation constant Kd is no less than 10 µM. For the same variant, in data set [1], the yeast surface expression was found to be 0.35.

For the variant chain 1 Y102M M105F, the Kd in the data set with fluorescein is no less than 10 µM. In data set [1], the yeast surface expression is 0.995.

On to chain 1 Y103D W108H, for which the Kd with fluorescein came to 3.74 µM. Moreover, in data set [1], the yeast surface expression is 0.708.

As for chain 1 Y103D W108R, the equilibrium dissociation constant (Kd) with fluorescein is no less than 10 µM. Besides, in data set [1], the yeast surface expression was 0.524.

For the variant chain 1 Y102W G104H G109I, in the data set with fluorescein, the dissociation constant (Kd) is no less than 10 µM. For the same variant, the yeast surface expression in data set [1] was found to be 0.0981.

Take chain 1 Y102V Y103C: in the data set with fluorescein, the equilibrium dissociation constant (Kd) is no less than 10 µM. In addition, the yeast surface expression in data set [1] stood at 0.798.

Regarding chain 1 Y103D D106R, the Kd with fluorescein is no less than 10 µM. For the same variant, the yeast surface expression in data set [1] was 0.454.

Consider chain 1 Y102I D106Q, for which, in the data set with fluorescein, the dissociation constant Kd is no less than 10 µM. In data set [1], the yeast surface expression was determined as 0.599.

As for chain 1 Y103H D106H, the Kd with fluorescein was no less than 10 µM. Moreover, the yeast surface expression in data set [1] is 0.611.

Regarding chain 1 Y102K G104L D106G, the Kd with fluorescein is no less than 10 µM. The yeast surface expression in data set [1] came to 0.302.

On to chain 1 Y103F Y107V, for which the Kd in the data set with fluorescein stood at 0.0146 µM. The yeast surface expression in data set [1] was 0.817.

With chain 1 Y102S M105K, in the data set with fluorescein, the Kd stood at 0.00251 µM. Besides, the yeast surface expression in data set [1] was determined as 1.02.

For the variant chain 1 Y102S M105N, the dissociation constant (Kd) with fluorescein was 0.0038 µM. Further, the yeast surface expression in data set [1] is 1.31.

chain 1 Y102M Y103F D106Y: in the data set with fluorescein, the Kd is no less than 10 µM. In data set [1], the yeast surface expression amounted to 0.388.

On to chain 1 Y102L M105I, for which the equilibrium dissociation constant (Kd) in the data set with fluorescein is no less than 10 µM. In addition, in data set [1], the yeast surface expression stood at 1.57.

chain 1 Y102S Y107R: the dissociation constant (Kd) with fluorescein came out at 0.00251 µM. Further, the yeast surface expression in data set [1] stood at 0.667.

Turning to chain 1 Y102S Y107W, the Kd with fluorescein came out at 0.00128 µM. The yeast surface expression in data set [1] amounted to 0.747.

With chain 1 Y102H Y103E, the Kd in the data set with fluorescein worked out at 0.195 µM. For the same variant, in data set [1], the yeast surface expression was 1.17.

Consider chain 1 Y102H Y103C, for which the Kd with fluorescein was determined as 3.94 µM. The yeast surface expression in data set [1] was determined as 0.682.

As for chain 1 Y102V D106I, the Kd with fluorescein is no less than 10 µM. The yeast surface expression in data set [1] amounted to 0.421.

Regarding chain 1 Y102V D106N, the Kd with fluorescein came to 0.00215 µM. In addition, the yeast surface expression in data set [1] was 0.889.

Regarding chain 1 Y102Q D106Y, the Kd in the data set with fluorescein was no less than 10 µM. For the same variant, the yeast surface expression in data set [1] is 0.268.

Consider chain 1 Y102M Y103A Y107L, for which the Kd with fluorescein is no less than 10 µM. For the same variant, in data set [1], the yeast surface expression was determined as 0.84.

What is called Kd is the constant that tells how readily two partners part at equilibrium.
